Measurements reported in the nanobody polyreactivity screen of Harvey et al. (2022).

Assay: yeast display, Sf9 membrane polyspecificity reagent, FACS + sequencing; frameworks hold sequencing errors
Outline: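 A synthetic nanobody library was expressed on Saccharomyces cerevisiae BJ5465 by galactose induction for 36–48 hours. The library was stained for 1 hour at 4 °C with 10% biotinylated, detergent-solubilized Sf9 membrane reagent and enriched with streptavidin microbeads before FACS. Low and high (top ~1%) gates were set on anti-HA fluorescence for expression and streptavidin fluorescence for reagent binding, and each polyreactivity label reflects the gate of origin.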

Row | Sequence | polyreactivity (PSR sort gate)
1 | QVQLVESGGGLVQAGGSLRISCAASGFTFPSYAMGWYRQAAGKERELVAAINRRGGSTNYADSVKGRFTISRDNAKNTDYLQMNSLKPEDTAVYYCAKQPRLGKYEYYYWGQGTQVTVSS | high polyreactivity
2 | QVQLVESGGGLVQAGGRLRLISAASGSIFYYNAMGWYRQAPGKERELVAAISWSADSTYYADSVKGRFTISRDNAKNTVYLQMNSLKPEDSAAYYCNTDLVPWTEYWYDYWGQGTQVTVSS | low polyreactivity
3 | QVQLQERGGGLVQAGGSLRLSCAASCTIFRFRYMGGHRQAPGKERELVAGINGGTTTYYADSEIGRFTMSRDNAKNTLYLQMNSLKPDDTAVYNCAAGDSRLTYYDYWGQGTQVTVSS | low polyreactivity
4 | QVQLVESGGGLVQAGGSLRLSCAASGFTFFHNAMGWYRPAPGKERELVAAITSGGNTYYADSVKGRFTISRDNAKNTVYLQMNSLKPEDTAVYYCAASFWSSGQWYDYWGQGTQVTVSS | high polyreactivity
5 | QVQLVESGGGLVQAGGSLRVSCAASGLTSIHYMGWYRQAPGKERELVATITSSTGSTYYADSVKGRFTISRDNAKNTVYLQMNSLKPEDTAVDYCAAESFGADGPYQPSYDYWGQGTQVTVSS | low polyreactivity
6 | QDQLVESGGGLVQAGGSLRLSCAASGSTISGSAMGWYRQAPGKVRELVATMSRGGSTTYADSVKGRFTISRDNAKNTVYLQMNSLKPEDTAVYYCAAQTYVWWVKYHSGGQGTQVTVSS | low polyreactivity
7 | QVQLVESGGGLVQAGGSLRLSCAASGSIFYHYAMGWYRQAPGKERELVAAISSGGSTSYADSVKGRFTFSRDNAKNTVYLQMNSLKPEDTAVYYCNARRIRSRSWKYDYWGQGTQVTVSS | low polyreactivity
8 | QVQRVESGGGLVQAGGSLRLSCAASGRIFIANAMGWYRQAPGKERELVAAISFSGGSTYYADSVKGRFTISRDHAKTTVYLQMNSLNPEDTAVYYCNALYTSYYRPSGMGYWGQGTQVTVSS | high polyreactivity
9 | QVQLVESGGGLVQAGGSLRLSCAASGFIFTKYSMGWYRQAPGKERELVAAIRGSGGSTYYADSVKGRFTISRDIAKNSVYLQMNSLKPEDTAVYYCAAERSLGYDYWGQGTQVTVSS | high polyreactivity
10 | QVQLVESGGGLVQAGGSLRLSCAASGFIFAIYAMGWYRQAPGKEMELVAAITSSGGSTYYADSVKGRFTISRDNAKNTVYLQMNSLKPEDTAVYYCNKLSWRKYLGYEYWGQGTHVTVSS | high polyreactivity
11 | QVQLVESGGGLVQAGGSLRLSCAASGSIFRYYTMGWYRQAPGKERELVAAISWSGGSTYYADSVKGRFTISRDNAKNTVYLQMNSLKPEDTPVYYCNAVSFAYNPYSGTYDYRGQGTQVTVSS | high polyreactivity
12 | QVQLVESGGGLVQAGGSLRLSCAASGIIFRNYAMGWYRQAPGKERELVAAISSNGGSTYYADSVKGRFTISRDNAKNTVYLQMNSLKPEDTAVYYCAARHSLYGYWGQGTQVTVSS | high polyreactivity
13 | QVQLVESGGGLVQAGGSLRLSCAASVSTFRNYAMGWYRQAPGKERELVAAISGSGVRTYYADSVKGRFTISRDNAKNTVYLQMNSLKPEDTAVYYCAARGQGGPYNYWGQGTQVTVSS | high polyreactivity
14 | QVQLVESCGGLVQAGGSLRLSCAASGFIFFANTMGWYRQAPGKERELVAAITSDGSTYYADSVKGRFTISRDNAKNTVYLQMNSLKPEDTAVYYCNAQSNYADLAYWNDYWGQGTKVTVSS | low polyreactivity
15 | QVQHVESGGGLVQAGGSLRLSCAASGSTFAFNTMGWYRQSPGKEWELVAGISSNGGRTYYADSVNGRFTISRDNAKNTVYLQMNSLKPEDTAVYYCNRASVFHYRWYYYWGQGTQVTVSS | high polyreactivity
16 | QVQLVESGGGLVQAGGSLRLICAASGSIFTPYVMGWYRQAPGKEREFVAAITQRGGRTYYADSVKGRFTISRDNAKNTVYLQMNSLKPEDTAVYYCAKTSVSRTYHRSAYDYWGQGTQVTVSS | high polyreactivity
17 | QVQLVESGGGLVQAGGSLRLSCAASGFTLDWYVMGWYRQATGKERELVAAISSSGGRTYYADSVKGRFTISRDNAKNTVYLQMNSLKPEDTAVYYCAARNQYGGYPYGYDYWGQGTQVTVSS | high polyreactivity
18 | QVQLEESGGGIVQAGGSLRLSCAASGSTFGVYAMGWYRQAPGKERELVAAISSSTGSTYYADSVKGRFTISRDNAKNTVYLQMNSLKPEYTAVYYCAAAGYGKVRGDYWGQGTQVTVSS | low polyreactivity
19 | QVQLVESGGGLVQAGGSLRLSCAASGSTFSLYAMGWYRQAPGKERELVAAISQSGSRTYYADSVKGRFTISRDNAKNTVYLQMNSLKPEDTAVYYCAAYSPQTYLRWTYGYWGQGTQVTVSS | high polyreactivity
20 | QVQLVESGGGLVQAGGSLRLSCAASGRTFVLNAMGWYRQAPGKERELVAAITLGGGSTYADSVKGRLTISRDNAKNTVYLQMNSLKPEDTEVYYCNKASGVFYGHLDYWGQGTQVTVSS | low polyreactivity
21 | QVQLVESGGGLVQAGGSLRLSCAASGRIFDDYDMGWYRQAPGKERELVAAISFDGGNTYADSVKGRFTISRDNAKNTVYLQMNSLKPEDTAVYYCARDDTSPGYGDQSSNAAYYYWGQGTQVTVSS | low polyreactivity
22 | QVQLVESGGGLVQAGGSLRLSCAASGFILSNYAMGWYRQAPGKERELVAAIRWSGGSTYYADSVKGRFTISRDYAKNTVYLQMNSLKPEDTAVYYCNKVRPFSWYGLDYWGQGTQVTVSS | high polyreactivity
23 | QVQLVESGGGLVQAGGSLRLSCAASGLTFGGYAMGWYRPAPGKERELVAAISWSGGRTYYADSVKGRFTISRDNAKNTVYLQMNSLKPEDTAVYYCAARKLVVNLREDYWGQGTQVTVSS | high polyreactivity
24 | QVQLVESGGGLVQAGGSLRLSCAASGITFRYYTMGWYRQAPGKERELVAAITTSGTGTYYADSVKGRFTISRDNAKNTVYLQMNSLNPEYSAVYYCATYPHIAVLSRYDYWGQGTQVTVSS | low polyreactivity
25 | QVQLVESGGGLVQAGGSLRLSCAASGSIFDTYTMGWYRQAPGKERELVAAITSGTTTTYADSVKGRFTISRDNAKNTVYLQMNSLKPEDTAVYYCAARTSGSFDYCGQGTQVTVSS | low polyreactivity
26 | QVQLVESGGGLVQAGGSLRLSCAASGSIFWPYAMGWYRQAPGKDRELVATITWTGGSTYYADSVKGRFTISRDNAKNTVYLQMNSLKPEDTAVYYCAAAGYYGYGYDYWGQGTQVTVSS | low polyreactivity
27 | QVQLVESGGGLVQAGGSLRLSCAASGSISVPYGMGWYRQAPGKERELVAAITGGSTNYADSVKGRFTISRDNAKNTVYLQMNSLKPEDTAVYYCAADVYWYYGAPELWYRYDYWGQGTQVTVSS | low polyreactivity
28 | QVQLVESGGGLVQAGGILRLSCAASGSTFESNTMGGYRQAPGKERELVAAISYSGGRTYYADSVKGRFTISRDNAKNTVYLQMNSLKPEDTAVYYCAARWSVSYHYWGQGTQVTVSS | high polyreactivity
29 | QVQLVESGGVLVQAGGSLRLSCDASGRIFKYNAMGWYRQAPGKERELVDVITSGVSTYYADSVKGRFTISRDNAKNTVYLQMNSLKPEDTAVYYCAKKYYKVHKFDYWCQGTQVTVSS | low polyreactivity
30 | QVQLVESGGGLVQAGGSLRLSCAASGRIFYYYGMGWYRQAPGKERELVAAISNGGRTYYADSVKGRFTISRDNAKNTVYLQMTSLKPEDTAVYYCAALTRGRGGYDYWGQGTQVTVSS | high polyreactivity
